Read-outs that look alike come from different tables or passages of the source.
T1: erythropoietin receptor on TF-1 cells (UniProt P19235 25-508, limits assumed)
T1 sequence (looked up): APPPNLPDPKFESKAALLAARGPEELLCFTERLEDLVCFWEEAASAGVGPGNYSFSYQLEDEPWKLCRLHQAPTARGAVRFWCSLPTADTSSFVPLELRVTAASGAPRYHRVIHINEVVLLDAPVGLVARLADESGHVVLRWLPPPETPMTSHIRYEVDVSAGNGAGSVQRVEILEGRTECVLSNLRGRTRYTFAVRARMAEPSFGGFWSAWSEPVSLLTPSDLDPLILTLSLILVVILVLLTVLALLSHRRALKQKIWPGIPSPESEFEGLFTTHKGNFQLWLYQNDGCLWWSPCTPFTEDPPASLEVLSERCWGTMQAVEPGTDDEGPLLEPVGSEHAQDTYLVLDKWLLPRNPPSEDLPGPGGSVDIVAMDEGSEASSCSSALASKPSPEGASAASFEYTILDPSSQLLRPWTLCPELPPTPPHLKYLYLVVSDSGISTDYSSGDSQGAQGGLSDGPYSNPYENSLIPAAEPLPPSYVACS

B1: wild type feline erythropoietin (fEPO) (ligand)
chain: APPRLICDSRVLERYILEAREAENVTMGCAEGCSFSENITVPDTKVNFYTWKRMDVGQQAVEVWQGLALLSEAILRGQALLANSSQPSETLQLHVDKAVSSLRSLTSLLRALGAQKEATSLPEATSAAPLRTFTVDTLCKLFRIYSNFLRGKLTLYTGEACRRGDR

Assays:
[1] = target: T1, erythropoietin receptor on TF-1 cells
[2] = target: T1, erythropoietin receptor on TF-1 cells; remark: listed apart in the source
[3] = target: T1, erythropoietin receptor on TF-1 cells; remark: listed apart in the source
[4] = target: T1, erythropoietin receptor on TF-1 cells; assay: cell-based or functional assay
[5] = target: T1, erythropoietin receptor on TF-1 cells; assay: cell-based or functional assay; remark: listed apart in the source
[6] = target: T1, erythropoietin receptor on TF-1 cells; assay: cell-based or functional assay; remark: listed apart in the source
[7] = target: T1, erythropoietin receptor on TF-1 cells; assay: cell-based or functional assay; remark: listed apart in the source

Row | Molecule | Relative activity compared to wt fEPO (TF-1 proliferation) [1] [X] | further results
1 | A128 (ligand) | 1.4 | fold more active than WT (TF-1 proliferation, EC 50 ng/ml) [2]: 1.4 x
2 | D55 (ligand) | 1.4 | –
3 | E21 (ligand) | 3.1 | –
4 | E31 (ligand) | 1.4 | –
5 | E37 (ligand) | 1.2 | EC50 (read off the curve) [1]: 3 ng/mL
6 | E72 (ligand) | 1.2 | EC50 (TF-1 proliferation, 450nm; stored 5 weeks at +4 degrees C) [3]: 2.1 ng/mL; EC50 (TF-1 proliferation, 450nm; stored 5 weeks at -80 degrees C) [3]: 2.1 ng/mL
7 | F133 (ligand) | 2.2 | –
8 | K116 (ligand) | 0.7 | –
9 | L130 (ligand) | 2.6 | –
10 | P129 (ligand) | 0.9 | –
11 | R53 (ligand) | 1.6 | –
12 | R76 (ligand) | 0.6 | fold less active than WT (TF-1 proliferation, EC 50 ng/ml) [2]: 1.6 x
13 | R131 (ligand) | 0.8 | –
14 | R163 (ligand) | 1.1 | –
15 | S36 (ligand) | 0.9 | –
16 | S120 (ligand) | 1.6 | –
17 | T132 (ligand) | 3.2 | –
18 | Y49 (ligand) | 2.6 | –
19 | B1 | – | EC50 (TF-1 proliferation, 450nM) [4]: 3.2 ng/mL; EC50 (read off the curve) [5]: ~2 ng/mL; EC50 (TF-1 proliferation; Starting [fEPO] 250ng/ml; Theoretical Activity 0.5x, Actual Activity 0.6x) [6]: 4.7 ng/mL; EC50 (TF-1 proliferation; Starting [fEPO] 500ng/ml; Theoretical Activity 1x, Actual Activity 1x) [6]: 2.8 ng/mL; EC50 (TF-1 proliferation; Starting [fEPO] 1000ng/ml; Theoretical Activity 2x, Actual Activity 2x) [6]: 1.4 ng/mL; EC50 (read off the curve) [7]: ~3 ng/mL
